The series deals with the molecule itself. In words: SDS-PAGE and Western blot of cell lysate without cross-linker. In general terms: A western blot detects proteins with antibodies after separation by electrophoresis.

One protein from publication PMC5780253 (Biochimica et biophysica acta, 2017) can be followed below.

B1: human apical sodium-dependent bile acid transporter, wild type (wt-hASBT) (natural protein, UniProt Q12908 1-348, looked up)
chain: MNDPNSCVDNATVCSGASCVVPESNFNNILSVVLSTVLTILLALVMFSMGCNVEIKKFLGHIKRPWGICVGFLCQFGIMPLTGFILSVAFDILPLQAVVVLIIGCCPGGTASNILAYWVDGDMDLSVSMTTCSTLLALGMMPLCLLIYTKMWVDSGSIVIPYDNIGTSLVSLVVPVSIGMFVNHKWPQKAKIILKIGSIAGAILIVLIAVVGGILYQSAWIIAPKLWIIGTIFPVAGYSLGFLLARIAGLPWYRCRTVAFETGMQNTQLCSTIVQLSFTPEELNVVFTFPLIYSIFQLAFAAIFLGFYVAYKKCHGKNKAEIPESKENGTEPESSFYKANGGFQPDEK
modifications: N-glycosylated at Asn10 (glycosylated ~41 kDa and non-glycosylated ~37 kDa forms both seen)
As a reminder, the stoichiometry N is a count of units in the complex or per binding partner. Turning to B1, the “stoichiometry N” value was found to be 2.
